# Assays:
# [1] = molecular target: mfPRLR.mmh (monomeric macaca fascicularis PRLR); experiment: Surface plasmon resonance (Biacore T200), mAb-capture format; assay type: binding; settings: antibody-capture format, analyte mfPRLR.mmh
# Method: (§1) Antibodies, expressed as human IgG1 Fc “[…]” designations), were captured onto an anti-human Fc sensor surface (mAb-capture format), and soluble monomeric (hPRLR.mmh; SEQ ID NO:401, or macaca fascicularis (mf) PRLR.mmh; SEQ ID NO:403) or dimeric (hPRLR.mFc; SEQ ID NO:402) PRLR protein was injected over the sensor surface. Measurements were conducted on a T200 Biacore instrument. Kinetic association (ka) and dissociation (kd) rate constants were determined by processing and fitting the data to a 1:1 binding model using Scrubber 2.0 curve fitting software.
# [2] = molecular target: T1, hPRLR.mFc (soluble dimeric human PRLR) (Homo sapiens, UniProt P16471); experiment: as above; assay type: binding; settings: antibody-capture format, analyte hPRLR.mFc
# T1 construct: dimeric (hPRLR.mFc)
# Method: as §1
# [3] = molecular target: T2, hPRLR.mmh (soluble monomeric human PRLR) (Homo sapiens, UniProt P16471); experiment: as above; assay type: binding; settings: antibody-capture format, analyte hPRLR.mmh
# T2 construct: soluble monomeric (hPRLR.mmh); mmh (myc-myc-hexahistidine)
# Method: as §1
# HEK293/mfPRLR = experiment: FACS cell surface binding; set-up: species or system macaca fascicularis
# Method: The ability of anti-PRLR antibodies to selectively bind PRLR expressing cell lines was next determined. Human, monkey macaca fascicularis, and mouse PRLR constructs with an HA tag were stably introduced into HEK293 cells via Lipofectamine 2000-mediated transfection methodology. Transfectants (HEK293/hPRLR, HEK293/mfPRLR and HEK293/mPRLR) were selected for at least 2 weeks in complete growth media plus G418.
# Cell surface expression of PRLR on 293/hPRLR cells was assessed via FACS analysis. Briefly, 1×10^5 cells were incubated with 10 μg/ml of Control antibody I, or an isotype control for 30 min on ice in antibody dilution buffer. Following two washes with antibody dilution buffer, cells were incubated with 10 μg/ml of PE conjugated anti-human secondary antibodies for 30 min on ice. Following two additional washes, samples were run on a Hypercyt® cytometer and analyzed in FORECYT™ (IntelliCyt, Albuquerque, N. Mex.). The mean fluorescence intensities (MFI) were expressed as fold change above isotype control levels (background). FACS binding confirmed that Control I selectively bound to 293/hPRLR expressing cells with MFIs that were 30 fold above background (isotype ctrl) levels and less than 2 fold binding on parental cells.
# Next, the anti-PRLR antibodies of the present invention were tested via FACS for selective binding to the engineered overexpressing PRLR HEK293 cell lines, as well as to non-expressing HEK293 cells and a native PRLR expressing cell line (T47D).
# [4] = tested on: HEK293/hPRLR/STAT5-Luc cells (human PRLR); experiment: STAT5-Luc luciferase reporter assay, blocking of PRL-mediated receptor activation; assay type: cell-based; settings: for IC50: 5 nM constant PRL, 6 hr at 37° C.; for Percent Blocking at 100 nM Antibody: 5 nM PRL
# Text: The ability of anti-PRLR antibodies to block prolactin (PRL)-mediated receptor activation was examined in a luciferase-based reporter assay. The endocrine hormone PRL binds to the extracellular domain of its cognate receptor PRLR, triggering rapid homodimerization and activating several downstream signaling cascades.
# In this example, an engineered cell line was used to determine the ability of anti-PRLR antibodies to block ligand activation of the PRLR receptor. Briefly, HEK293/hPRLR/STAT5-Luc cell lines with stable incorporation of a human PRLR expression cassette and the STAT5-dependent luciferase reporter were generated via sequential rounds of Lipofectamine® 2000-mediated transfection (LifeTechnologies, Carlsbad, Calif.). Cells were selected for at least two weeks in the presence of 500 μg/mL G418 (hPRLR) and 100 μg/mL hygromycin B (STAT5-Luc). The STAT5-Luc assay utilized 2×10^5 HEK293/hPRLR/STAT5-Luc cells seeded in complete growth medium on PDL-coated 96 well plates grown overnight at 37° C., 5% CO2. To generate antibody inhibition curves, cells were incubated (6 hr at 37° C.) with serially diluted anti-human PRLR antibodies (100 nM to 24 pM) in the presence of 5 nM constant PRL before recording signal. PRL dose response curves were generated by the addition of serially diluted PRL (100 nM to 24 pM) to cells and recording signal after a 6 hr (37° C.) incubation in the absence of antibodies. The ability of the antibodies to activate PRLR in the absence of ligand was also assessed.
# Luciferase activity was measured with ONE-GLO™ reagent (Promega, Madison, Wis.). Relative light units (RLUs) were measured on a Victor luminometer (Perkin Elmer, Shelton, Conn.). EC50/IC50 values were determined from a four-parameter logistic equation over an 8-point response curve using GraphPad Prism. Percent blocking and percent activation are reported for the highest antibody dose.
# T2 sequence (P16471 with tags, fused parts or gaps): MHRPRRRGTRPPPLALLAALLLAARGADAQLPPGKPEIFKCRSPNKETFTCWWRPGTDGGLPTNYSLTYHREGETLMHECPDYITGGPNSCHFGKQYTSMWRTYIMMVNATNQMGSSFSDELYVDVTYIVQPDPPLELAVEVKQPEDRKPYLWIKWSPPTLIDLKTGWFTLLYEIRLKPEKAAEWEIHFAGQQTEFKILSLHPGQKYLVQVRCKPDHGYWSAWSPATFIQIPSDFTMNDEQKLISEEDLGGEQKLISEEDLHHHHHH
# Sequence of mfPRLR.mmh (monomeric macaca fascicularis PRLR) (as listed by the source): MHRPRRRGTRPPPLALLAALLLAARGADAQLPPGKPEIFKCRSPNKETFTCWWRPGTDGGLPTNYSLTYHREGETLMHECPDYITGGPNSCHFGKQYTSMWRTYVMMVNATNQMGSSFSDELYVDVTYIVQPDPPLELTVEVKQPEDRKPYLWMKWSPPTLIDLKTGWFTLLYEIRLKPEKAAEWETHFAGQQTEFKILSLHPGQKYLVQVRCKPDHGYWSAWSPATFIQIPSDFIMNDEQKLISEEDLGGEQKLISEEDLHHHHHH
# T1 sequence (P16471 with tags, fused parts or gaps): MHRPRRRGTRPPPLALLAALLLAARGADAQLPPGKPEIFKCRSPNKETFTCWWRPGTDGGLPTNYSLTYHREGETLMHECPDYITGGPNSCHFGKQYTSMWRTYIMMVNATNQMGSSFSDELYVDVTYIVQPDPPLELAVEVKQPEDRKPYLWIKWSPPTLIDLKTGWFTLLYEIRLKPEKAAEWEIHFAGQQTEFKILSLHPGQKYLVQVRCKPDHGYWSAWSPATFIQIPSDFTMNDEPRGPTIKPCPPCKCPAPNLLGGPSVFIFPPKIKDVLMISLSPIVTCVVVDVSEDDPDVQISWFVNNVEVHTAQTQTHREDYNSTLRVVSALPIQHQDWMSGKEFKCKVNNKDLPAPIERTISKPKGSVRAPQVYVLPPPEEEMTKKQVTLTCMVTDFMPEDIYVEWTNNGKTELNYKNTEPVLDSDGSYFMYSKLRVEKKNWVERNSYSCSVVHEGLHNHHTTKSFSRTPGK
# Sequence of HEK293/mfPRLR (as listed by the source): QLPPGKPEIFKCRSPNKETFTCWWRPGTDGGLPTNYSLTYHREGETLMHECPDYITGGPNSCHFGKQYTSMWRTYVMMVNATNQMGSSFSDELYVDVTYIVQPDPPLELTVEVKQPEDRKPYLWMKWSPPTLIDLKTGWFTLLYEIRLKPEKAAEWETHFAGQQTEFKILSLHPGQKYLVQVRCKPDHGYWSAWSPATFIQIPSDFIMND
Kd ([1]; 25° C.),Kd ([1]; 37° C.),Kd ([2]; 25° C.),T½ ([2]; 25° C.),Kd ([2]; 37° C.),T½ ([2]; 37° C.),Kd ([3]; 25° C.),T½ ([3]; 25° C.),Kd ([3]; 37° C.),T½ ([3]; 37° C.),Molecule,T½ ([1]; 25° C.),T½ ([1]; 37° C.),FACS Cell Binding (Fold Above Background) (HEK293/mfPRLR),IC50 [4],Percent Blocking at 100 nM Antibody [4]
6.2 nM,14.9 nM,0.141 nM,324.4 min,0.5 nM,78.7 min,6.74 nM,15.8 min,16.2 nM,5.8 min,"H1H6960N: human IgG1 Fc form of H2M6960N; anti-PRLR; HCVR/LCVR SEQ ID NOs 322/330 (antibody, V domains shown, human IgG1 Fc) VH: EVQLVESGGGLVKPGGSLRLSCAASGITFSSYSMNWVRQAPGKGLEWVSSISTRSSLIHYADSVKGRFTISRDNAKNSLYLQMNSLRDEDTAVYYCARWDAAAAFDYWGQGTLVIVSS VL: DIQLTQSPSFLSASVGDRVTITCWASQGISSYLAWYQQKPGKAPKLLIYVASTLQSGVPSRFSGSGSGTEFTLTISSLQPEDFATYFCQQLNSYPLTFGGGTKVEIK",19.8 min,9.0 min,23 Fold Above Background,1.58 nM,100%
0.416 nM,0.982 nM,0.0439 nM,282.9 min,0.0672 nM,91.3 min,0.302 nM,44.9 min,0.607 nM,12.0 min,"H1H6966N: human IgG1 Fc form of H2M6966N; anti-PRLR; HCVR/LCVR SEQ ID NOs 338/346 (antibody, V domains shown, human IgG1 Fc) VH: QVQLVQSGAEVQKPGASVKVSCKVSGYTLTALSIHWVRQAPGKGLEWMGNFDPGDGETIHAQKFQGRVTMTGDTSTDTAYMELSSLRSEDTAVYYCVGVTFDYWGQGTLVTVSS VL: EIVMTQSPATLSVSPGERATLSCRASQSVASNLAWYQQKPGQAPRLLLYGASTRATGIPARFSGSGSGTEFTLTISSLQSEDFALYYCQHYNNWPLTFGGGTKVEIK",35.6 min,9.6 min,18 Fold Above Background,–,54%
129 nM,370 nM,1.45 nM,22.3 min,4.51 nM,5.0 min,202 nM,0.3 min,681 nM,0.4 min,"H1H6959N2: human IgG1 Fc form of H2M6959N2; anti-PRLR; HCVR/LCVR SEQ ID NOs 306/314 (antibody, V domains shown, human IgG1 Fc) VH: EVQLVESGGGLVQPGRSLRLSCAASGFTFDDYAMHWVRQAPGKGLEWVSGISWHSGIIGYADSVKGRFTISRDNAKNSLYLQMNSLRTEDAALYYCAKIGSYFYFDSWGQGTLVTVSS VL: EIVLTQSPGTLSLSPGERATLSCRASQSVSSNYLAWYQQKPGQAPRLLIYGASSRATGIPDRFSGSGSGTDFTLTISRLEPEDFAVYYCQQFGSSGYTFGQGTNLEIK",0.7 min,0.7 min,11 Fold Above Background,–,52%
1.44 nM,4.08 nM,0.0867 nM,315.8 min,0.167 nM,83.3 min,1.17 nM,42.5 min,3.16 nM,8.8 min,"H1H6958N2: human IgG1 Fc form of H2M6958N2; anti-PRLR, receptor blocking; HCVR/LCVR SEQ ID NOs 290/298 (antibody, V domains shown, human IgG1 Fc) VH: QVQLVESGGGVVQPGRSLRLSCGASGFTFRNYGMQWVRQGPGKGLEWVTLISFDGNDKYYADSVKGRFTISRDNSKNTLFLQMNSLRTEDTAVYYCARGGDFDYWGQGTLVTVSS VL: DIQMTQSPSSLSASVGDRVTITCRASQDIRKDLGWYQQKPGKAPKRLIYAASSLHSGVPSRFSGSGSGTEFTLTISSLQPEDFATYYCLQHNSYPMYTFGQGTKLEIK",41.3 min,8.6 min,30 Fold Above Background,0.198 nM,100%

# — US9688764B2, “Methods of treating breast cancer by administering anti-human prolactin receptor (PRLR) antibodies” (REGENERON PHARMACEUTICALS, INC., priority 2013, dated 2017)
